Measurements taken from article PMC4951027.

Columns and labels:
[1] = target: ecto-domain of integrin α5β1-Fc fusion protein; assay: SPR
[2] = target: Fn N-terminal domain fragment (Fn-NTD) (human); assay: SPR; conditions: domain or fragment
Fn N-terminal domain fragment (Fn-NTD) (human), sequence (P02751 32-290): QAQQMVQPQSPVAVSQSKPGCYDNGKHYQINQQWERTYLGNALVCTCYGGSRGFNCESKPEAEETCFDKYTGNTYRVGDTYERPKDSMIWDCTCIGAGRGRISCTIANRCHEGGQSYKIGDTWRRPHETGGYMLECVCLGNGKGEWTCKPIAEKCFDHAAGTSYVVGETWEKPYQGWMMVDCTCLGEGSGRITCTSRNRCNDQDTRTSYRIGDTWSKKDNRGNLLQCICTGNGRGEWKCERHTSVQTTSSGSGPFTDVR

Fn + BBK32 (BBK32-bound Fn) (from UniProt O50835 21-205) (complex)
Kd [1]: 0.17 µM | ka1 (first step, bivalent analyte model) [1]: 75000 M⁻¹ s⁻¹ | ka2 (second step, bivalent analyte model) [1]: 8e-06 RU^-1s^-1 | kd1 (first step, bivalent analyte model) [1]: 0.012 s⁻¹ | kd2 (second step, bivalent analyte model) [1]: 0.001 s⁻¹

GST-FnBPA-3
Kd [2]: 10 µM
